{"source": "paper PMC10073703", "molecular_target": "Haemagglutinin (HA) of influenza A/Delaware/55/2019 (H1N1), from Flucelvax monovalent drug substance (Monobulk) (influenza A virus A/Delaware/55/2019 (H1N1))", "assay": "SEC"}
{"substance": "Haemagglutinin (HA) of influenza A/Delaware/55/2019 (H1N1), from Flucelvax monovalent drug substance (Monobulk) (natural protein)", "values": [{"measurement": "stoichiometry N", "value": 3}]}
